{"source": "paper PMC6774274", "about": "“Engineering a Seven Enzyme Biotransformation using Mathematical Modelling and Characterized Enzyme Parts” (Chemcatchem, 2019)", "molecules": {"B1": {"name": "mpCAR (Mycolicibacterium phlei DSM 43239 = CCUG 21000) (protein)", "chain": "MASESRDVRLQRRIAELYDTDPQFAAARPDEAVARAVNAPGLTLSQVIRTVLDNYADRPALGYRAVEFAADPASARTVARLLPRFDTITYRELGERIDATTAALGHDGLRPGERVAILGFSSVDYTTIDIAAFNLGAVSVPLQTSAPPSQLRPMTAETEPAVIAASVDFLDDALELIRTGHAPRRLVVFDFHPEIDDHRDALAAATTGLADTAMTVETLDSLLTRGRTLPAPTGYRDRDDDLALLIYTSGSTGAPKGAMYQRRMVTNMWRRATTAIWGGKEAAPWLTLNFMPMSHVMGRGILSTTLCSGGTAYFAARSDLSTLLEDLALVRPTQLTFVPRIWEMIFQEYQRDVARRPEAEVLADLREHRLGGRFLAAMTGSAPMSPEMTAFAESVLDLHLVDGYGSTEAGSIVLDGQVLRPPVLDYKLVDVPELGYFSTDRPYPRGELLVKTELMFPGYYKRPDITAEVFDEDGYYRTGDIVAELGPDRLAYVDRRNNVLKLSQGEFVTVSKLEAAFAASPLVRQIYIYGNSAHPYLLAVVVPTEDALTRYDAATLKTAISESLQDVGRAAGLQSYEIPRDFLVETTPFTLENGLLTGLRKLARPKLKEHYGERLEQLYTELADGQAEELKELRTHGAQQPTLTTVSRAATALLGTASAEVRPDAHFTDLGGDSLSALTFGNLLGEIYAVEVPVGVIVSPANDLAAIADYIDTARRPGDGRPTFAGVHGDDAAEVHARDLTLDRFLDDATLAAATALPGPAPEIRTVLLTGATGFLGRYLALEWLERMAMVGGTLICLVRGRDDAAARARLDQIFDSGDPELLRHYRELADRHLEVIAGDKSDAVLGLDRRTWQRLADTVDLIVDPAALVNHVLPYRELFGPNVVGTAELIRLALTGRLKPYLYTSTIAVGAGIAPGQFTEDADIRQISATRTLDDSYANGYATSKWAGEVLLREAHDLCGLPVAVFRCDMILADTSYAGQLNVPDMFTRLILSLVATGIAPLSFYELDAAGHRQRAHYDGLPVEFVAEAVSALGLDVAEDGGFATYHVMNPYDDGIGLDEFVDWLTGAGYPIERVNDYGTWFQRFETAIRGLPERQRQASLLPLLHNYQRPQPPIRGSAAPTDRFRSAVQDAKIGPDKDIPHITPEVIVKYVTDLRLLGLL", "notes": "N-terminal 6xHis tag, pNIC28-Bsa4, E. coli BL21(DE3); co-expressed with Bacillus subtilis phosphopantetheine transferase; gene from genomic DNA"}, "B2": {"name": "tnPAP (Thermodesulfobium narugense DSM 14796) (protein)", "chain": "MLEKVDLNKIMDREDYKKEFDNLSIELGALQREARDLKLPIIIVFDGFEAAGKGTLINKLMLPLDPRGYDVIKRFECPSETDNRPYFYKFWKTIPKRGDISIVNESWYKALLSDRVLKKTSPEIVEYLFDEILSFEGQLVADGYLIVKFFLYISEEEQKDRLKKLKKNKDESWRVTDDVLKLHKKYKKFLDAAETVFEKTDTAFAPWTIIEATDKRYATIKIFKTLIEAIKFKIKAIKEKEELPSFENFYPVNELSSLSKIDLNKSLTYEEYIEKLHPLQREIHDLQYRLWKERVPVIVAFEGWDAAGKGGSIKRLTEAMDPRGYTVIPIGAPNEYELAHHYLWRFWQNVPEKGNIAIFDRTWYGRVLVERVEKLCKDFDWQRAYGEIKQMEKQFTNFGIVLLKFWLHIDKKTQLERFEEREKNPFKHWKITEDDWRNRSKWDDYLPAVEEMLIRTSTAEAPWNIIEANDKYFARIKVLETFVNKIKEKLN", "notes": "N-terminal 6xHis tag, codon-optimised, pNIC28-Bsa4, E. coli"}}, "key": {"[1]": {"biological_target": "T1, mpCAR (Mycolicibacterium phlei, UniProt A0A5N5VEC4)", "T1 construct": "gene car; N-terminal 6xHis tag, pNIC28-Bsa4, E. coli BL21(DE3); co-expressed with Bacillus subtilis phosphopantetheine transferase; gene from genomic DNA", "T1 sequence (A0A5N5VEC4 1-1162)": "B1 chain", "experiment": "inhibition of CAR reaction", "assay_type": "biochemical", "conditions": "read-out: K I-ADP", "text": "inhibition of CAR reaction on mpCAR"}, "[2]": {"biological_target": "T1, mpCAR", "experiment": "NADPH oxidation at […] nm, two-substrate fit", "assay_type": "biochemical", "conditions": "kinetic constant for ATP in the ordered rate equation, not an inhibition constant; otherwise as row above"}, "[3]": {"substrate": "Cc1ccc(C(=O)O)cc1", "experiment": "purified protein", "conditions": "0.25 mM NADPH, 10 mM MgCl2, varied ATP, 100 mM Tris-HCl pH 7.5, 30 °C"}, "[4]": {"substrate": "Nc1ncnc2c1ncn2[C@@H]1O[C@H](COP(=O)(O)OP(=O)(O)OP(=O)(O)O)[C@@H](O)[C@H]1O", "experiment": "purified protein", "assay_type": "biochemical, Mycolicibacterium phlei", "conditions": "0.25 mM NADPH, 10 mM MgCl2, varied 4-toluic acid, 100 mM Tris-HCl pH 7.5, 30 °C"}, "[5]": {"substrate": "NC(=O)C1=CN([C@@H]2O[C@H](COP(=O)(O)OP(=O)(O)OC[C@H]3O[C@@H](n4cnc5c(N)ncnc54)[C@H](OP(=O)(O)O)[C@@H]3O)[C@@H](O)[C@H]2O)C=CC1", "experiment": "purified protein", "assay_type": "biochemical, Mycolicibacterium phlei", "conditions": "10 mM MgCl2, 1 mM ATP, 10 mM 4-toluic acid, 100 mM Tris-HCl pH 7.5, 30 °C, varied: cofactor"}, "[6]": {"substrate": "Nc1ncnc2c1ncn2[C@@H]1O[C@H](COP(=O)(O)O)[C@@H](O)[C@H]1O", "experiment": "ADP-Glo kinase assay, luminescence", "assay_type": "biochemical, Thermodesulfobium narugense", "conditions": "polyphosphate co-substrate (12.5 mM PO3 units), 20 or 40 mM MgCl2, 100 mM Tris-HCl pH 7.5, 15 min", "text": "ADP-Glo kinase assay, luminescence on tnPAP"}}, "data": [{"molecule": "Nc1ncnc2c1ncn2[C@@H]1O[C@H](COP(=O)(O)OP(=O)(O)O)[C@@H](O)[C@H]1O", "note": "[ADP]", "values": [{"measurement": "Ki", "setting": "[1]", "result": 11, "unit": "mM"}]}, {"molecule": "Nc1ncnc2c1ncn2[C@@H]1O[C@H](COP(=O)(O)OP(=O)(O)OP(=O)(O)O)[C@@H](O)[C@H]1O", "note": "[ATP]", "values": [{"measurement": "K I-ATP", "setting": "[2]", "result": "0.04 ± 0.034", "unit": "mM"}]}, {"molecule": "B1", "values": [{"measurement": "Km", "setting": "[3]", "result": "1,500±320 μM"}, {"measurement": "kcat", "setting": "[3]", "result": "3.33 ± 0.333", "unit": "s⁻¹"}, {"measurement": "Km", "setting": "[4]", "result": "100 ± 28", "unit": "µM"}, {"measurement": "kcat", "setting": "[4]", "result": "3.33 ± 0.333", "unit": "s⁻¹"}, {"measurement": "Km", "setting": "[5]", "result": "30 ± 8", "unit": "µM"}, {"measurement": "kcat", "setting": "[5]", "result": "3.33 ± 0.333", "unit": "s⁻¹"}]}, {"molecule": "B2", "values": [{"measurement": "Km", "setting": "[6]", "result": "280 ± 240", "unit": "µM"}, {"measurement": "kcat", "setting": "[6]", "result": "4.17 ± 2.08", "unit": "s⁻¹"}]}]}
